Measured values published in PMC3237451, “Missense Mutation in the Second RNA Binding Domain Reveals a Role for Prkra (PACT/RAX) during Skull Development”.

Molecular target: T1, His-RAX WT (PACT) (Mus musculus (cDNA from L929 cells), UniProt Q9WTX2 1-313)
T1 sequence: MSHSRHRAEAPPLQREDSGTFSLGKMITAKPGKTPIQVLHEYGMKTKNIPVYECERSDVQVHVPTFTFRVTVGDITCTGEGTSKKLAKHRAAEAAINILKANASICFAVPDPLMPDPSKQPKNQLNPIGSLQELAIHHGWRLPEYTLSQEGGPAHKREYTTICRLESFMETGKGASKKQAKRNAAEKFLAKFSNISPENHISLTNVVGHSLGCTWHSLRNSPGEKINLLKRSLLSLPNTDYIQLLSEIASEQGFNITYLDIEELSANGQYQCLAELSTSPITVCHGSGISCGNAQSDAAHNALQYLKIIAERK
Assay: EMSA; 1 uM His-RAX; 25 fmol probe; competed by poly(I:C); 20 mM Tris pH 7.5, 50 mM KCl, 2 mM MgCl2, 2 mM MnCl2, 5% glycerol; EMSA 15 min at room temperature, 5% acrylamide gel in 0.25x TBE run cold
Details: protein: recombinant; blunt

B1: 30-bp dsRNA probe (dsRNA)
RNA 1: GGGAACAAAAGCUGGGUACCGGGCCCCCCC
RNA 2: GGGGGGGCCCGGUACCCAGCUUUUGUUCCC
Does B1 bind?
Result: binds
